According to PMC7293249 (Nature Communications, 2020):

Experiments:
[1] = biological target: T1, human activated protein C (Homo sapiens); assay: cell-based or functional assay
T1 chain 1: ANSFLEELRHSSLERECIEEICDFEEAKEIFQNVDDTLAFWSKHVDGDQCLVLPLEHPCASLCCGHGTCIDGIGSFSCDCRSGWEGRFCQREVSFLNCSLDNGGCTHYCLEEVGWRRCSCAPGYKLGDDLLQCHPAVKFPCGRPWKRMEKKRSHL
T1 chain 2: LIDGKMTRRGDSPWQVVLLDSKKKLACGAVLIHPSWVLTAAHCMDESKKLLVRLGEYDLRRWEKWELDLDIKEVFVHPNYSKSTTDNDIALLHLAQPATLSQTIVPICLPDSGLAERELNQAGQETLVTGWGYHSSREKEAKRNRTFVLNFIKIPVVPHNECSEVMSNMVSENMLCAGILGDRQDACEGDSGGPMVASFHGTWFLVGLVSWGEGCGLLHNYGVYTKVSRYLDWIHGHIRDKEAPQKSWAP

[2] = biological target: T2, monkey activated protein C (Macaca sp. (monkey plasma, species not …, UniProt A0A1D5QSH6)); assay: cell-based or functional assay
[3] = biological target: T3, Phe–Pro–Arg–chloromethylketone active-site-blocked APC (PPACK-hAPC) (Homo sapiens, UniProt P04070, active site blocked by Phe–Pro–Arg–chloromethylketone (PPACK)); assay: ELISA; PPACK-hAPC or hAPC coated onto a MaxiSorp plate at 100 ng per well overnight; IgG or Fab at concentrations starting at 20 nM; conditions: both partners purified
T3 construct: also called PPACK-APC

[4] = biological target: T1, human activated protein C; assay: ELISA; hAPC or hPC coated directly on Maxisorp plates at 100 ng/well in PBS/Ca2+; antibodies titrated, 1 h at RT; detection with HRP anti-human Fc; conditions: both partners purified
[5] = biological target: T4, human protein C (zymogen) (Homo sapiens, UniProt P04070); assay: SPR; Biacore T200, 25 °C, HBS-P+ (10 mM HEPES pH 7.4, 150 mM NaCl, 0.05% P20) with 1 mg/mL BSA; mAbs captured by immobilised mouse anti-human Fc antibody on CM5; hAPC injected at 1.56-200 nM, hPC at 1.56-1000 nM; 1:1 Langmuir fit; conditions: both partners purified
T4 construct: human protein C zymogen, light chain; also called hPC; PC; source: bought: plasma-derived, Enzyme Research Laboratories

[6] = biological target: T1, human activated protein C; assay: as above; conditions: both partners purified
[7] = biological target: T5, monkey protein C (zymogen) (Macaca sp. (monkey plasma, species not …, UniProt A0A1D5QSH6)); assay: ELISA; data not shown; species cross-reactivity; species' APC or PC coated directly on Maxisorp plates at 100 ng/well in PBS/Ca2+; antibodies titrated; conditions: both partners purified
T5 construct: monkey protein C zymogen, light chain; also called monkey PC

dog activated protein C = biological target: T6, dog activated protein C (Canis lupus familiaris, UniProt Q28278); assay: as above; conditions: both partners purified
T6 construct: also called dog APC

[8] = biological target: T7, rabbit activated protein C (Oryctolagus cuniculus, UniProt Q28661); assay: as above; conditions: both partners purified
T7 construct: also called rabbit APC

[9] = biological target: T2, monkey activated protein C; assay: as above; conditions: both partners purified
human FVIIa = human FVIIa (Homo sapiens, UniProt P08709); assay: ELISA; data not shown; human FIIa, FVIIa, FIXa, FXa, FXIa, FXIIa coated directly on Maxisorp plates at 5–10 µg/mL; anti-APC antibodies at 20 nM; conditions: both partners purified
human FIIa = biological target: T8, human FIIa (Homo sapiens, UniProt P00734); assay: as above; conditions: both partners purified
T8 construct: human FIIa (thrombin), light chain; human FIIa (thrombin), heavy (catalytic) chain; also called thrombin

human FXIa = human FXIa (Homo sapiens, UniProt P03951); assay: as above; conditions: both partners purified
human FIXa = human FIXa (Homo sapiens, UniProt P00740); assay: as above; conditions: both partners purified
human FXa = human FXa (Homo sapiens, UniProt P00742); assay: as above; conditions: both partners purified
human FXIIa = human FXIIa (Homo sapiens, UniProt P00748); assay: as above; conditions: both partners purified
[10] = biological target: T9, plasma-derived hAPC-Gla-domainless (APC-GD) (Homo sapiens, UniProt P04070); assay: ELISA; APC-binding ELISA of the purified Fabs on human APC and Gla-domainless APC; format not told; conditions: both partners purified
T9 construct: also called APC (in the crystal structures); source: bought: plasma-derived, Enzyme Research Laboratories

B1: type II anti-APC mAb TPP-4885 (BAY1896502) (antibody, V domains shown)
VH: EVQLVESGGGLVQPGGSLRLSCAASGFTFSNYYLNWVRQAPGKGLEWVGDIRLKSNNYEKHYAESVKGRFTISRDDSKNSLYLQMNSLKTEDTAVYYCAREGDYFDYWGQGTLVTVSS
VL: DIVLTQSPASLAVSPGQRATITCKASESVDSFGATFMHWYQQKPGQPPKLLIYLASNLESGVPARFSGSGSGTDFTLTINPVEADDTANYYCQQNNEDPYTFGQGTKLEIK
notes: humanized/optimized from mouse HAPC1573; variable region from the Fab joined to the hIgG2 constant region (CH1-CH2-CH3); humanized/optimized from mouse HAPC1573 (kappa); hIgG2; Derived from HAPC1573 (mIgG1/k) by humanization and optimization; also called type II mAb; BAY 1896052; source: HEK293-6E, transiently co-transfected (pTT5), purified (protein A, SEC)
Protac-aPTT in FVIII-antibody-treated normal human plasma, IC50 [1]: 12 nM | Protac-aPTT in hemophilia A plasma, inhibition of APC activity, IC50 [1]: 11.6 nM | Protac-aPTT in normal human plasma, inhibition of APC anticoagulant activity, IC50 [1]: ~7 nM | Protac-aPTT in FVIII-antibody-induced hemophilia A monkey plasma, inhibition of APC anticoagulant activity, IC50 [2]: 19.3 nM | binding result [3]: binds | EC50 [4]: 0.8 nM | binding result [5]: no binding (tested: 1000 nM) | Kd [6]: 10 nM | binding result [7]: no binding | binding result (dog activated protein C): no binding | binding result [8]: no binding | EC50 [9]: ~1 nM | binding result (human FVIIa): no binding (tested: 20 nM) | binding result (human FIIa): no binding (tested: 20 nM) | binding result (human FXIa): no binding (tested: 20 nM) | binding result (human FIXa): no binding (tested: 20 nM) | binding result (human FXa): no binding (tested: 20 nM) | binding result (human FXIIa): no binding (tested: 20 nM)

B2: hu1573Fab (type II Fab, TPP-5040) (Fab, V domains shown)
VH: EVQLVESGGGLVQPGGSLRLSCAASGFTFSNYYLNWVRQAPGKGLEWVGDIRLKSNNYEKHYAESVKGRFTISRDDSKNSLYLQMNSLKTEDTAVYYCAREGDYFDYWGQGTLVTVSS
VL: DIVLTQSPASLAVSPGQRATITCKASESVDSFGATFMHWYQQKPGQPPKLLIYLASNLESGVPARFSGSGSGTDFTLTINPVEADDTANYYCQQNNEDPYTFGQGTKLEIK
notes: Humanized Fab of mouse HAPC1573; also called h1573Fab; type II (h1573) Fab; source: QMCF cells (CHO-based), transiently transfected (pTT5), purified from conditioned medium (KappaSelect, SEC)
binding result [3]: binds

B3: type I anti-APC mAb TPP-2312 (BAY1316786) (antibody, V domains shown)
VH: EVQLLESGGGLVQPGGSLRLSCAASGFTFSSYWMSWVRQAPGKGLEWVSGVSWNGARTHYADSVKGRFTISRDNSKNTLYLQMNSLRAEDTAVYYCALTGRSGWMRFPNWFDPWGQGTLVTVSS
VL: QSVLTQPPSVSGAPGQRVTISCTGSSSNIGAAYDVHWYQQLPGTAPKLLIYGNNKRPSGVPDRFSGSKSGTSASLAITGLQAEDEADYYCQSYDSSLSGSVFGGGTKLTVL
notes: variable region as the heavy chain of C25K23 with S56A in CDR2, joined to the hIgG2 constant region (CH1-CH2-CH3); as the light chain of C25K23 with K55R in CDR2; hIgG2; Candidate C25K23 was germlined and optimized to become TPP-2312; also called type I mAb; source: HEK293-6E, transiently co-transfected (pTT5), purified (protein A, SEC)
Protac-aPTT in FVIII-antibody-induced hemophilia A monkey plasma, inhibition of APC anticoagulant activity, IC50 [2]: 9.3 nM | EC50 (dog activated protein C): ~1 nM | EC50 [8]: ~1 nM | EC50 [9]: ~1 nM | binding result (human FVIIa): no binding (tested: 20 nM) | binding result (human FIIa): no binding (tested: 20 nM) | binding result (human FXIa): no binding (tested: 20 nM) | binding result (human FIXa): no binding (tested: 20 nM) | binding result (human FXa): no binding (tested: 20 nM) | binding result (human FXIIa): no binding (tested: 20 nM)

B4: C25K23Fab (type I Fab, TTP-2781) (Fab, V domains shown)
VH: EVQLLESGGGLVQPGGSLRLSCAASGFTFSSYWMSWVRQAPGKGLEWVSGVSWNGSRTHYADSVKGRFTISRDNSKNTLYLQMNSLRAEDTAVYYCALTGRSGWMRFPNWFDPWGQGTLVTVTS
VL: QSVLTQPPSASGTPGQRVTISCTGSSSNIGAAYDVHWYQQLPGTAPKLLIYGNNKRPSGVPDRFSGSKSGTSASLAISGLRSEDEADYYCQSYDSSLSGSVFGGGTKLTVL
notes: Parent of TPP-2312; also called type I (C25K23) Fab; source: E. coli, purified (Protein A chromatography)
EC50 [10]: 2 to 4 nM
